Assay [1] concerns the target T1, HLA-A*0201 (human).
T1 construct: whole, on cells; MHC class I molecule on T2 cells; also called HLA-A2
The experiment in a line: T2 cells loaded with 100 µM peptide, Brefeldin A, decay of HLA-A*0201 labelling (mAb BB7.2) over 0-6 h. On the procedure: (§1) The protocol used to measure relative affinity (RA) is described in detail elsewhere (Tourdot et al., 2000). […] The cells were then treated with Brefeldin A for 1 h, washed, incubated at 37° C. for 0, 2, 4 and 6 hours, and labeled with mAb BB7.2.

Assay [2] addresses T1, HLA-A*0201. The experiment in a line: T2 cell HLA-A*0201 stabilisation, flow cytometry with mAb BB7.2; peptide concentration / reference peptide concentration giving 20% HLA-A*0201 expression. The procedure:
as §1
(In flow cytometry, cells or beads pass a laser one at a time.)

Where only a bound is given, the exact number is not on record here.

B1: HER-2/neu402Y (peptide)
peptide: YLEEITGYL
notes: also called optimized variant of the cryptic peptide HER-2/neu402
Turning to B1, in assay [1], the “DC50 (half-life of the HLA/peptide complex)” value was determined as 4 h. Further, the “RA (relative affinity)” value in assay [2] is 3.6 ratio to reference peptide HIVpol589 (reference = 1).

B2: MAGE-A248V9 (peptide)
peptide: YLEYRQVPV
notes: also called optimized variant of MAGE-A248D9/G9
Regarding B2, the “DC50 (half-life of the HLA/peptide complex)” value in assay [1] was determined as 4 h. Also, the “RA (relative affinity)” value in assay [2] is 1.8 ratio to reference peptide HIVpol589 (reference = 1).

B3: TERT988Y (peptide)
peptide: YLQVNSLQTV
notes: also called optimized variant of the cryptic peptide TERT988
In the case of B3, the “DC50 (half-life of the HLA/peptide complex)” value in assay [1] is greater than 6 h. In assay [2], the “RA (relative affinity)” value is 2.1 ratio to reference peptide HIVpol589 (reference = 1).

(Values after patent US20090130133A1 (VAXON BIOTECH, published 2009).)
